Experimental data taken from article PMC9166750 (Scientific Reports, 2022).

Key:
[1] = target: syntaxin-1a cytoplasmic domain (residues 1–265) with C-terminal Avi-tag (UniProt P32851); assay: fluorescence polarisation; ensemble fluorescence anisotropy of syntaxins with Munc18 (Supplemental Fig. 3); estimated Kd; conditions of this titration not told
[2] = target: syntaxin-1a cytoplasmic domain (residues 1–265) with C-terminal Avi-tag (UniProt P32851); assay: pull-down; syntaxins biotinylated at the N-terminal amino group on neutravidin agarose beads; about 300 μg Munc18-1 incubated 1 h, washed, then 500 μg SNAP-25A 1 h at room temperature, washed with TBS; SDS-PAGE, Coomassie, Munc18-1 and SNAP-25 bands normalised to the syntaxin bands (ImageJ)
[3] = target: syntaxin-3b (residues 1–264)-Avi, T14E, double-cysteine construct labelled with FRET dyes (mouse) (UniProt Q64704); assay: FRET or BRET; single-molecule FRET within syntaxin-3b (donor and acceptor on two cysteines), tethered by C-terminal biotin to streptavidin on a PEG surface; 10 μM SNAP-25 and synaptobrevin-2 (1-96) in solution; low FRET (open) read as SNARE complex
[4] = target: syntaxin-3b (residues 1–264)-Avi, wild type, double-cysteine construct labelled with FRET dyes (mouse) (UniProt Q64704); assay: as above
[5] = target: syntaxin-1a cytoplasmic domain (residues 1–265) with C-terminal Avi-tag (UniProt P32851); assay: fluorescence polarisation; bulk fluorescence anisotropy; Alexa 488-labelled syntaxin about 0.5 μM in TBS (20 mM Tris pH 7.5, 150 mM NaCl, 0.5 mM TCEP), unlabelled SNAP-25A 0-0.900 μM, about 15 min at room temperature, 96 well plate; curves fit with Hill equations to estimate Kd
[6] = target: T1, Munc18-1 (UniProt P61765 1-594); assay: fluorescence polarisation; ensemble fluorescence anisotropy of syntaxins with Munc18 (Supplemental Fig. 3); estimated Kd; conditions of this titration not told; settings: both partners purified
T1 construct: The methods describe no plasmid for Munc18-1; only its tag cleavage and gel filtration are told; source: E. coli BL21 (DE3*), purified (Ni-NTA, TEV cleavage, Superdex 200 gel filtration)

synaptobrevin-2 cytoplasmic domain (residues 1–96), sequence (P63045 1-96): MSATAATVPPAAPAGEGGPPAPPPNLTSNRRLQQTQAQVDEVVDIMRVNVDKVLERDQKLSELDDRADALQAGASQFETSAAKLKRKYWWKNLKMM

fold increase of SNARE complex formation against WT syntaxin-3b [3] [fold] | percent of molecules that formed ternary SNARE complex [4] [%] | Molecule | further results
– | – | Munc18-1 (from UniProt P61765 1-594) (natural protein) | Kd [1]: 6.6 nM; percent decrease of binary t-SNARE complex formation with SNAP-25 in the presence of Munc18-1 [2]: 70%
2 | 50 | SNAP-25, full length (from UniProt P60881-2 1-206) (natural protein) | Kd [5]: 161 nM
2 | 50 | synaptobrevin-2 cytoplasmic domain (residues 1–96) (from UniProt P63045 1-96) (domain or fragment) | –
– | – | syntaxin-3b cytoplasmic domain (residues 1–264) with C-terminal Avi-tag, wild type (domain or fragment, mouse, UniProt Q64704-2 1-264, looked up, Alexa 488 (NHS ester) at the N-terminal primary amino group in the anisotropy assays; biotin (NHS-biotin) at the N-terminal primary amino group in the pull-downs, syntaxin-3b (splice isoform 3b of syntaxin-3), cytoplasmic domain, residues 1-264; Gene synthesized and inserted into pJ414 (ATUM); The two native cysteines lie in the transmembrane region, which the Avi-tag replaces; also called SX-3b; WT syntaxin-3b; source: E. coli BL21 (DE3*), purified (Ni-NTA, TEV cleavage, HiTrap Q); not shown: His6, N-terminal, cleaved) MKDRLEQLKAKQLTQDDDTDEVEIAIDNTAFMDEFFSEIEETRLNIDKISEHVEEAKKLYSIILSAPIPEPKTKDDLEQLTTEIKKRANNVRNKLKSMEKHIEEDEVRSSADLRIRKSQHSVLSRKFVEVMTKYNEAQVDFRERSKGRIQRQLEITGKKTTDEELEEMLESGNPAIFTSGIIDSQISKQALSEIEGRHKDIVRLESSIKELHDMFMDIAMLVENQGAMIDRIENNMDQSVGFVERAVADTKKAVKYQSEARRKK | Kd [6]: 9.6 nM
